Holding throughout (details): both partners purified
The target of assay [1] is T1, RhoG (residues 1-184) (human, UniProt P84095 1-184).
T1 construct: human RhoG, residues 1-184; Loaded with GTPγS for the SPR assays; also called active RhoG; source: Sf9 (baculovirus), purified (HisTrap, TEV, Superdex 75); not shown: poly-histidine tag, N-terminal, cleaved
Nature of the assay: SPR; Biacore T200; GST-ELMO1-RBD (1-113, wild-type or mutants) captured on CM5 chip with GST Capture Kit; GTPγS-bound RhoG injected at 2.2-35.5 μM (Rac1 and Cdc42 measured similarly); 10 mM HEPES pH 7.5, 150 mM NaCl, 1 mM MgCl2, 0.005% P-20; steady-state affinity analysis.

Assay [2] addresses T1, RhoG (residues 1-184). Nature of the assay: crystal structure; equimolar ELMO1-RBD (residues 1-82) and RhoG mixed at 16 mg/ml, 4 °C for 4 h; hanging-drop vapor diffusion at 20 °C; 1.6 Å.
In assay [3] the target is ELMO1-RBD (residues 1-98) (Homo sapiens, UniProt Q92556). Nature of the assay: SPR; Biacore T200; ELMO1-RBD (1-98) amine-coupled to CM5 chip; nanobody designs injected at five concentrations (0.5-8 μM); 10 mM HEPES pH 7.5, 150 mM NaCl, 0.005% P-20; single-cycle kinetic analysis.
Assay [4] addresses T2, ELMO1-RBD (residues 1-98) (Homo sapiens, UniProt Q92556).
T2 construct: source: E. coli cell-free protein synthesis, purified (HisTrap, HiTrap Q, Superdex 75); not shown: histidine tag, N-terminal, cleaved
Nature of the assay: SPR; ELMO1-RBD (residues 1-98) immobilised on a CM5 chip by amine coupling; 10 mM HEPES pH 7.5, 150 mM NaCl, 0.005% surfactant P-20; five concentrations (0.5-8 uM) of each nanobody injected continuously; single-cycle kinetic analysis; Biacore T200.

Where a chain is given by its changes, count along the chain named. Numbers in names are those of the source.

Eight molecules from PMC10023680, “Targeting Ras-binding domain of ELMO1 by computational nanobody design” (Communications Biology, 2023) can be followed below.

T1 sequence (P84095 1-184): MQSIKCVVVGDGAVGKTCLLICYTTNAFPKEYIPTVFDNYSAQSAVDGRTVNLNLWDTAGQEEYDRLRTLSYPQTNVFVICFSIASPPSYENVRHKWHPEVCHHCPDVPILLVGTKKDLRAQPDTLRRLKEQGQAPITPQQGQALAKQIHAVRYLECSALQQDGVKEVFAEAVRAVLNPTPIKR

B1: GST-tagged ELMO1-RBD (residues 1-113), wild-type (domain or fragment, human, UniProt Q92556 1-113, looked up)
chain: MPPPADIVKVAIEWPGAYPKLMEIDQKKPLSAIIKEVCDGWSLANHEYFALQHADSSNFYITEKNRNEIKNGTILRLTTSPAQNAQQLHERIQSSSMDAKLEALKDLASLSRD
notes: the plasmids section describes only His-tagged ELMO1-RBD; also called ELMO1-RBD wild-type; not shown: GST, N-terminal, kept
Take B1: in assay [1], the binding result is listed as “binds”.

B2: GST-tagged ELMO1-RBD (residues 1-113) K20E (domain or fragment, human, UniProt Q92556 1-113, looked up)
chain: B1 chain with K20E
notes: not shown: GST, N-terminal, kept
Take B2: the binding result in assay [1] is recorded as “binds”.

B3: GST-tagged ELMO1-RBD (residues 1-113) Y18A (domain or fragment, human, UniProt Q92556 1-113, looked up)
chain: B1 chain with Y18A
notes: as for B2
With B3, the binding result in assay [1] is reported as “binds”.

B4: GST-tagged ELMO1-RBD (residues 1-113) N58A (domain or fragment, human, UniProt Q92556 1-113, looked up)
chain: B1 chain with N58A
notes: as for B2
With B4, in assay [1], the binding result is on record as “binds”.

B5: ELMO1-RBD (residues 1-82) (domain or fragment, human, UniProt Q92556 1-82, looked up)
chain: MPPPADIVKVAIEWPGAYPKLMEIDQKKPLSAIIKEVCDGWSLANHEYFALQHADSSNFYITEKNRNEIKNGTILRLTTSPA
As for B5, in assay [2], the binding result is given as “binds”.

B6: Nb29 (VHH)
VHH: VQLVESGGGLVQAGDSLRLSCAASGLLFSFYIMGWFRQAPGREREFVAAIKWAGDTIYGTDSVKGRFAISRDNAKNTMYLQMNSLKPEDTAVYYCAADRFLTRSVKYTYWGQGTQVTVSS
notes: as Nb01 (designed from PDB 5LMW chain A) with S57A, R67T, T68I (CDR2) and D137T (CDR3) relative to Nb01; keeps Leu29 and Lys59; numbers count on: AHo numbering; S57A, R67T, T68I and D137T are stated against Nb01, not against the parent 5LMW; the old residues may themselves be designed ones; source: E. coli cell-free protein synthesis (with DsbC and GSSG), purified (Ni Sepharose)
The molecule B6 had a Kd in assay [3] of 2000 nM.

B7: Nb02 (VHH)
VHH: B6 VHH with L27M, A49S, K51T, T56R, I57T, T108D
notes: designed from the parent nanobody chain A of PDB 5LMW; as Nb01 but with T29M and S59T instead of T29L and S59K; numbers count on: AHo numbering; source: E. coli cell-free protein synthesis (with DsbC and GSSG), purified (Ni Sepharose)
With B7, the binding result in assay [3] is on record as “no binding (tested: 0.5-8 μM)”.

B8: Nb29 (VHH)
VHH: B6 VHH
notes: It is Nb01 with S57A, R67T, T68I (CDR2) and D137T (CDR3); S57A, R67T, T68I and D137T are stated against Nb01, not against 5LMW; Numbers count on: AHo numbering; A TEV cleavage site follows the N-terminal poly-histidine tag, but no cleavage is described for the nanobodies; source: E. coli cell-free protein synthesis, purified (Ni Sepharose resin)
Take B8: the Kd in assay [4] is 2020 nM.
